Experimental findings from IntAct's records for PubMed 29892012 are described below.

To fix the notation:
B1: Coiled-coil alpha-helical rod protein 1 (Homo sapiens), Q8TD31 (parent)
chain: MFPPSGSTGLIPPSHFQARPLSTLPRMAPTWLSDIPLVQPPGHQDVSERRLDTQRPQVTMWERDVSSDRQEPGRRGRSWGLEGSQALSQQAEVIVRQLQELRRLEEEVRLLRETSLQQKMRLEAQAMELEALARAEKAGRAEAEGLRAALAGAEVVRKNLEEGSQRELEEVQRLHQEQLSSLTQAHEEALSSLTSKAEGLEKSLSSLETRRAGEAKELAEAQREAELLRKQLSKTQEDLEAQVTLVENLRKYVGEQVPSEVHSQTWELERQKLLETMQHLQEDRDSLHATAELLQVRVQSLTHILALQEEELTRKVQPSDSLEPEFTRKCQSLLNRWREKVFALMVQLKAQELEHSDSVKQLKGQVASLQEKVTSQSQEQAILQRSLQDKAAEVEVERMGAKGLQLELSRAQEARRRWQQQTASAEEQLRLVVNAVSSSQIWLETTMAKVEGAAAQLPSLNNRLSYAVRKVHTIRGLIARKLALAQLRQESCPLPPPVTDVSLELQQLREERNRLDAELQLSARLIQQEVGRAREQGEAERQQLSKVAQQLEQELQQTQESLASLGLQLEVARQGQQESTEEAASLRQELTQQQELYGQALQEKVAEVETRLREQLSDTERRLNEARREHAKAVVSLRQIQRRAAQEKERSQELRRLQEEARKEEGQRLARRLQELERDKNLMLATLQQEGLLSRYKQQRLLTVLPSLLDKKKSVVSSPRPPECSASAPVAAAVPTRESIKGSLSVLLDDLQDLSEAISKEEAVCQGDNLDRCSSSNPQMSS
partner: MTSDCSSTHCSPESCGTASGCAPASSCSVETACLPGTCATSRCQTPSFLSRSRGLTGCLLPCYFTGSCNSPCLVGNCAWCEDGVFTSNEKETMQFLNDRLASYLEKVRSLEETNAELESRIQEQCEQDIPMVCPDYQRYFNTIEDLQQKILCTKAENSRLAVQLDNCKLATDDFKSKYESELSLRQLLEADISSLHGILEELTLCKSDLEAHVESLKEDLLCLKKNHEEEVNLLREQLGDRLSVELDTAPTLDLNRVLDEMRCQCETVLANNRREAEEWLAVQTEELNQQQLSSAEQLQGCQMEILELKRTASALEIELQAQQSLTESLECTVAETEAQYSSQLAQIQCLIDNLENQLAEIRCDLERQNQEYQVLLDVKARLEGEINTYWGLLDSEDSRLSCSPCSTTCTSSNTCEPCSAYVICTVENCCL
B2: Chorion-specific transcription factor GCMb (Homo sapiens), O75603 (parent)
chain: MPAAAVQEAVGVCSYGMQLSWDINDPQMPQELALFDQFREWPDGYVRFIYSSDEKKAQRHLSGWAMRNTNNHNGHILKKSCLGVVVCTQACTLPDGSRLQLRPAICDKARLKQQKKACPNCHSALELIPCRGHSGYPVTNFWRLDGNAIFFQAKGVHDHPRPESKSETEARRSAIKRQMASFYQPQKKRIRESEAEENQDSSGHFSNIPPLENPEDFDIVTETSFPIPGQPCPSFPKSDVYKATCDLATFQGDKMPPFQKYSSPRIYLPRPPCSYELANPGYTNSSPYPTLYKDSTSIPNDTDWVHLNTLQCNVNSYSSYERSFDFTNKQHGWKPALGKPSLVERTNHGQFQAMATRPYYNPELPCRYLTTPPPGAPALQTVITTTTKVSYQAYQPPAMKYSDSVREVKSLSSCNYAPEDTGMSVYPEPWGPPVTVTRAASPSGPPPMKIAGDCRAIRPTVAIPHEPVSSRTDEAETWDVCLSGLGSAVSYSDRVGPFFTYNNEDF
partner: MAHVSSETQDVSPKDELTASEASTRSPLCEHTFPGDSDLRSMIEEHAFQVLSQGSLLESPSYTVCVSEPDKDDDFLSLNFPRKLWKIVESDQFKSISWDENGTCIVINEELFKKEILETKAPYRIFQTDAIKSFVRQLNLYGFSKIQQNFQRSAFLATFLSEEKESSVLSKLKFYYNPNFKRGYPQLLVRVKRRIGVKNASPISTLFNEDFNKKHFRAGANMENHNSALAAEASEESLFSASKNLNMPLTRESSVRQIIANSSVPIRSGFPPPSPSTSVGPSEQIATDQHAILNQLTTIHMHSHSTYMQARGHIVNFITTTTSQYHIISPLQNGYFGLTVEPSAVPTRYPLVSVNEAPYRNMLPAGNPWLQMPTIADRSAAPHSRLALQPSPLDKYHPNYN
B3: Chorion-specific transcription factor GCMb (Homo sapiens), O75603 (parent)
chain: B2 chain
partner: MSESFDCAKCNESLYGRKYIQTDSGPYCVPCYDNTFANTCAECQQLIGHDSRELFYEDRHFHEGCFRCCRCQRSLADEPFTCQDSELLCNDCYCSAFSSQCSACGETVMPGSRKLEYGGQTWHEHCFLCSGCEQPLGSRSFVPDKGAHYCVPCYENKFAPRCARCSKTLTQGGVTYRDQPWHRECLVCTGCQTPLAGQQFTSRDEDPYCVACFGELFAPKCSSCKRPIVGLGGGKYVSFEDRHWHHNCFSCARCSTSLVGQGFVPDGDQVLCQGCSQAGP
B4: Chorion-specific transcription factor GCMb (Homo sapiens), O75603 (parent)
chain: B2 chain

The variants in one assay derive from B1. To be noted: with KRT40, Q6A162.
W337R: the “effect of a mutation on the interaction” value is on record as “with no effect”.

In a further assay the parent is B2. To be noted: with hsfy1_human HSFY1, Q96LI6.
As for MPAAAVQEAVGVCSYGMQLSWDINDPQMPQELALFDQFREWPDGYVRFIYSSDEKKAQRHLSGWAMRNTNNHNGHILKKSCLGVVVCTQACTLPDGSRLQLRPAICDKARLKQQKKACPNCHSALELIPCRGHSGYPVTNFWRLDGNAIFFQAKGVHDHPRPESKSETEARRSAIKRQMASFYQPQKKRIRESEAEENQDSSGHFSNIPPLENPEDFDIVTETSFPIPGQPCPSFPKSDVYKATCDLATFQGDKMPPFQKYSSPRIYLPRPPCSYELANPGYTNSSPYPTLYKDSTSIPNDTDWVHLNTLQCNVNSYSSYERSFDFTNKQHGWKPALGKPSLVERTNHEQFQAMATRPYYNPELPCRYLTTPPPGAPALQTVITTTTKVSYQAYQPPAMKYSDSVREVKSLSSCNYAPEDTGMSVYPEPWGPPVTVTRAASPSGPPPMKIAGDCRAIRPTVAIPHEPVSSRTDEAETWDVCLSGLGSAVSYSDRVGPFFTYNNEDF [G349E], the “effect of a mutation on the interaction” value was “with no effect”.

Variants of B3 are the subject of a further assay. To be noted: with fhl3_human FHL3, Q13643.
Consider MPAAAVQEAVGVCSYGMQLSWDINDPQMPQELALFDQFREWPDGYVRFIYSSDEKKAQRHLSGWAMRNTNNHNGHILKKSCLGVVVCTQACTLPDGSRLQLRPAICDKARLKQQKKACPNCHSALELIPCRGHSGYPVTNFWRLDGNAIFFQAKGVHDHPRPESKSETEARRSAIKRQMASFYQPQKKRIRESEAEENQDSSGHFSNIPPLENPEDFDIVTETSFPIPGQPCPSFPKSDVYKATCDLATFQGDKMPPFQKYSSPRIYLPRPPCSYELANPGYTNSSPYPTLYKDSTSIPNDTDWVHLNTLQCNVNSYSSYERSFDFTNKQHGWKPALGKPSLVERTNHEQFQAMATRPYYNPELPCRYLTTPPPGAPALQTVITTTTKVSYQAYQPPAMKYSDSVREVKSLSSCNYAPEDTGMSVYPEPWGPPVTVTRAASPSGPPPMKIAGDCRAIRPTVAIPHEPVSSRTDEAETWDVCLSGLGSAVSYSDRVGPFFTYNNEDF [G349E], for which the “effect of a mutation on the interaction” value was “with no effect”.

The next assay covers variants of B4. The conditions noted are these: with crx_human CRX.
On to MPAAAVQEAVGVCSYGMQLSWDINDPQMPQELALFDQFREWPDGYVRFIYSSDEKKAQRHLSGWAMRNTNNHNGHILKKSCLGVVVCTQACTLPDGSRLQLRPAICDKARLKQQKKACPNCHSALELIPCRGHSGYPVTNFWRLDGNAIFFQAKGVHDHPRPESKSETEARRSAIKRQMASFYQPQKKRIRESEAEENQDSSGHFSNIPPLENPEDFDIVTETSFPIPGQPCPSFPKSDVYKATCDLATFQGDKMPPFQKYSSPRIYLPRPPCSYELANPGYTNSSPYPTLYKDSTSIPNDTDWVHLNTLQCNVNSYSSYERSFDFTNKQHGWKPALGKPSLVERTNHEQFQAMATRPYYNPELPCRYLTTPPPGAPALQTVITTTTKVSYQAYQPPAMKYSDSVREVKSLSSCNYAPEDTGMSVYPEPWGPPVTVTRAASPSGPPPMKIAGDCRAIRPTVAIPHEPVSSRTDEAETWDVCLSGLGSAVSYSDRVGPFFTYNNEDF [G349E], for which the “effect of a mutation on the interaction” value is “with no effect”.

Variants of B4 are the subject of another assay. To be noted: with rbpms_human RBPMS.
MPAAAVQEAVGVCSYGMQLSWDINDPQMPQELALFDQFREWPDGYVRFIYSSDEKKAQRHLSGWAMRNTNNHNGHILKKSCLGVVVCTQACTLPDGSRLQLRPAICDKARLKQQKKACPNCHSALELIPCRGHSGYPVTNFWRLDGNAIFFQAKGVHDHPRPESKSETEARRSAIKRQMASFYQPQKKRIRESEAEENQDSSGHFSNIPPLENPEDFDIVTETSFPIPGQPCPSFPKSDVYKATCDLATFQGDKMPPFQKYSSPRIYLPRPPCSYELANPGYTNSSPYPTLYKDSTSIPNDTDWVHLNTLQCNVNSYSSYERSFDFTNKQHGWKPALGKPSLVERTNHEQFQAMATRPYYNPELPCRYLTTPPPGAPALQTVITTTTKVSYQAYQPPAMKYSDSVREVKSLSSCNYAPEDTGMSVYPEPWGPPVTVTRAASPSGPPPMKIAGDCRAIRPTVAIPHEPVSSRTDEAETWDVCLSGLGSAVSYSDRVGPFFTYNNEDF [G349E]: the “effect of a mutation on the interaction” value is “with no effect”.
